For the assay, the target named is T1, recombinant human LAIR1 (leukocyte-associated immunoglobulin-like receptor 1) (human), Q6GTX8.
T1 chain: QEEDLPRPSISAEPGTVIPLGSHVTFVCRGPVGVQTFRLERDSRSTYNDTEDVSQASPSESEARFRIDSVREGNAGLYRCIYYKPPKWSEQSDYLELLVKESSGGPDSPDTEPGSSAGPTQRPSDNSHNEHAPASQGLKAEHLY

B1: polymerized type I collagen (protein)
chain 1: not shown
chain 2: GPMGLMGPRGPPGAVGAPGPQGFQGPAGEPGEPGQTGPAGARGPPGPPGKAGEDGHPGKPGRPGERGVVGPQGARGFPGTPGLPGFKGIRGHNGLDGLKGQPGAPGVKGEPGAPGENGTPGQTGARGLPGERGRVGAPGPAGARGNDGSVGPVGPAGPIGSAGPPGFPGAPGPKGELGPVGNPGPAGPAGPRGEVGLPGVSGPVGPPGNPGANGLPGAKGAAGLPGVAGAPGLPGPRGIPGPAGAAGATGARGLVGEPGPAGSKGESGNKGEPGAAGPQGPPGPSGEEGKRGPNGEVGSAGPPGPPGLRGNPGSRGLPGADGRAGVMGPPGSRGPTGPAGVRGPNGDSGRPGEPGLMGPRGFPGSPGNVGPAGKEGPAGLPGIDGRPGPIGPAGARGEPGNIGFPGPKGPTGDPGKNGEKGHAGLAGARGAPGPDGNNGAQGPPGPQGVQGGKGEQGPAGPPGFQGLPGPAGTAGEVGKPGERGIPGEFGLPGPAGPRGERGPPGESGAAGPAGPIGSRGPSGPPGPDGNKGEPGVLGAPGTAGPSGPSGLPGERGAAGIPGGKGEKGETGLRGDVGSPGRDGARGAPGAVGAPGPAGANGDRGEAGPAGPAGPAGPRGSPGERGEVGPAGPNGFAGPAGAAGQPGAKGERGTKGPKGENGPVGPTGPVGAAGPAGPNGPPGPAGSRGDGGPPGATGFPGAAGRIGPPGPSGISGPPGPPGPAGKEGLRGPRGDQGPVGRTGETGASGPPGFAGEKGPSGEPGTAGPPGTPGPQGILGAPGFLGLPGSRGERGLPGVAGSVGEPGPLGIAGPPGARGPPGAVGNPGVNGAPGEAGRDGNPGSDGPPGRDGQAGHKGERGYPGNPGPAGAAGAPGPQGAVGPAGKHGNRGEPGPAGSVGPAGAVGPRGPSGPQGIRGEKGEPGDKGPRGLPGLKGHNGLQGLPGLAGHHGDQGAPGPVGPAGPRGPAGPSGPAGKDGRTGQPGAVGPAGIRGSQGSQGPAGPPGPPGPPGPPGPS
modifications: here or on the partner: covalent bond between the protein and the PVP moiety; γ-irradiated | covalent bond between the protein and the PVP moiety; γ-irradiated
Regarding B1, the percentage of CD14+/CD16+/CD163+/IL-10-expressing cells (M2 phenotype) in M1 cultures without vs. with 10% PTIC, flow cytometry was found to be 19.8% and the percentage of CD16+/CD36+/CD86+/IL-1β-expressing cells (M1 phenotype) in M1 cultures without vs. with 10% PTIC, flow cytometry amounted to 1.5%.

The values are drawn from paper PMC11817110.
